Reference: US20260207747A1 (ARTIVA BIOTHERAPEUTICS, published 2026)

T1: human B cell maturation antigen (BCMA), full-length, on cells (human, UniProt Q02223 1-184)
T1 construct: also called CD269; TNFRSF17
T1 sequence: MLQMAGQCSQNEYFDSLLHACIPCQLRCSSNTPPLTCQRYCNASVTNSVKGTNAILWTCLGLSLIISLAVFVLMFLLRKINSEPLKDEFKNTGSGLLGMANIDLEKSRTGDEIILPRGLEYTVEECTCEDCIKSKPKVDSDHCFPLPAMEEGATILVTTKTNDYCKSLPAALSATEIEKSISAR


Assays:
[1] = target: T1, human B cell maturation antigen (BCMA), …; assay: FACS titration (Scatchard analysis) on BCMA-expressing human NCI-H929 cells; anti-mouse IgG-A647 detection
Description: (§1) Antibodies were generated by immunizing AlivaMab mice with human BCMA and sequenced. The antibody sequences are shown in Table 3, Table 4, Table 5, Table 6, Table 7, and Table 8. […] Antibodies were titrated from 10 nM, with seven 1:5 dilutions. A positive control, mouse anti-human BCMA antibody (Biolegend, cat #357514) was tested in each experiment. Binding readout was measured via secondary detection, using an anti-mouse IgG-A647 nm (dilution 1:10000).

[2] = target: T1, human B cell maturation antigen (BCMA), …; assay: FACS titration (Scatchard analysis) on HEK-293T cells stably expressing full-length human BCMA; anti-mouse IgG-A647 detection
Description: as §1

[3] = target: T1, human B cell maturation antigen (BCMA), …; assay: Retrogenix Cell Microarray, proteins expressed in human HEK293 cells
[4] = target: T1, human B cell maturation antigen (BCMA), …; assay: FACS titration; cells not named in the heading (value equals the NCI-H929 EC50 of 14D14A in Table 2); heading of Table 6; cells not given

EC50 [1]	EC50 [2]	binding result [3]	EC50 [4]	Binder
0.189 nM	0.037 nM			Antibody #2 (Clone ID 13I04A) (antibody, V domains shown, Raised in AlivaMab mice immunised with human BCMA and purified on protein A. Detected with anti-mouse IgG; also called 13104A) VH: EVQLVESGGGLVQPGGSLRLSCAASGFTSSNYWMSWVRQAPGKGLEWVANIKHDGSEKYFVDSVKGRFTISRDNANNSLYLQMNSLRDEDTAVYYCARMRPWYYDLWGRGTLVTVSS VL: not shown
		binds		13I04A scFv (scFv, VL-(G4S)3-VH) scFv: DIVMTQSPDSLAVSLGERATINCKSSQSVLYSSYNKNYLAWYQQKPGQPPKILIYWASTRESGVPDRFTGSGSGTDFTLTISSLQAEDVAVYYCQQYYSTMYSFGQGTKLEIKGGGGSGGGGSGGGGSEVQLVESGGGLVQPGGSLRLSCAASGFTSSNYWMSWVRQAPGKGLEWVANIKHDGSEKYFVDSVKGRFTISRDNANNSLYLQMNSLRDEDTAVYYCARMRPWYYDLWGRGTLVTVSS
			0.827 nM	Antibody #4 (Clone ID 14D14A_C) (antibody, V domains shown, Same VL as 14D14A; The VH differs in Kabat CDR-H1 (SYYWC)) VH: QVQLQESGPGLVKPSETLSLTCTVSGGSISSYYWCWIRQSAGKGLEWIGRMYTSGSTNYNPSLKSRVTMSVDTSKNQFSLKLTSVTAADTAVYYCARERGYYYGGGGWIDPWGQGTLVTVSS VL: not shown
0.827 nM	0.172 nM			Antibody #4 (Clone ID 14D14A) (antibody, V domains shown, That clone differs in Kabat CDR-H1 (SYYWC against SYYWS)) VH: QVQLQESGPGLVKPSETLSLTCTVSGGSISSYYWCWIRQSAGKGLEWIGRMYTSGSTNYNPSLKSRVTMSVDTSKNQFSLKLTSVTAADTAVYYCARERGYYYGGGGWIDPWGQGTLVTVSS VL: not shown
		binds		16M16A scFv (scFv, VL-(G4S)3-VH) scFv: QPVLTQPPSASASLGASVTLTCTLSSGYSNYKVDWYQQRPGKGPRFVMRVGTGGIVGSKGDGIPDRFSVLGSGLNRYLTIKNIQEEDESDYHCGADHGSGSNFVYVFGTGTKVTVLGGGGSGGGGSGGGGSQVQLVQSGTEVKKPGASVKVSCKASGSTFTSFFIHWVRQAPGQGLEWMGLINPSGGGTGYALKFQGRVTMTRDTSTSTVYMELSSLRSEDTAVYFCSRGNYEAFDLWGHGTMVTVSS
3.79 nM	1.03 nM			Antibody #1 (Clone ID 01P08A) (antibody, V domains shown, Raised in AlivaMab mice immunised with human BCMA and purified on protein A. Detected with anti-mouse IgG) VH: QVQLQESGPGLVKPSETLSLTCIVSGGSISSYYWNWIRQPAGKGLEWIGRIYKSGNNIYNPSLQSRVTMSLDTSKNQFSLKLSSVTAADTAVYYCADGGNYFDWFDPWGQGTLVIVSS VL: QPVLTQPPSASASLGASVTLTCTLSSGYSNYKVDWYQQRPGKGPRFVMRVGTGGIVGSKGDGIPDRFSVLGSGLIRYLTIKNIQEEDESDYHCGADHGSGNNFVYVFGTGTKVTVL
0.188 nM	0.04 nM			Antibody #5 (Clone ID 16M16A) (antibody, V domains shown, Raised in AlivaMab mice immunised with human BCMA and purified on protein A. Detected with anti-mouse IgG) VH: QVQLVQSGTEVKKPGASVKVSCKASGSTFTSFFIHWVRQAPGQGLEWMGLINPSGGGTGYALKFQGRVTMTRDTSTSTVYMELSSLRSEDTAVYFCSRGNYEAFDLWGHGTMVTVSS VL: QPVLTQPPSASASLGASVTLTCTLSSGYSNYKVDWYQQRPGKGPRFVMRVGTGGIVGSKGDGIPDRFSVLGSGLNRYLTIKNIQEEDESDYHCGADHGSGSNFVYVFGTGTKVTVL
0.235 nM	0.051 nM			Antibody #3 (Clone ID 13L15A) (antibody, V domains shown, Raised in AlivaMab mice immunised with human BCMA and purified on protein A. Detected with anti-mouse IgG) VH: QAQLVQSGAEVKRPGASVKVSCKASGYTFISYLLHWVRQAPGQGLEWMVIINPSVGSTSYAQKFQGRVTMTRDTSTSTLYMELSSLRSEDTAVYYCARSSRNYWDGAFDIWGQGTMVTVSS VL: QPVLTQPPSASASLGASVTLTCTLSSGYSNYRVDWYQQRPGKGPRFVMRVGTGGIVGSKGDGIPDRFSVLGSGLNRYLTIKNIQEEDESDYHCGADHGSGSNFVWVFGGGTKLTVL
		binds		13L15A scFv (scFv, VL-(G4S)3-VH) scFv: QPVLTQPPSASASLGASVTLTCTLSSGYSNYRVDWYQQRPGKGPRFVMRVGTGGIVGSKGDGIPDRFSVLGSGLNRYLTIKNIQEEDESDYHCGADHGSGSNFVWVFGGGTKLTVLGGGGSGGGGSGGGGSQAQLVQSGAEVKRPGASVKVSCKASGYTFISYLLHWVRQAPGQGLEWMVIINPSVGSTSYAQKFQGRVTMTRDTSTSTLYMELSSLRSEDTAVYYCARSSRNYWDGAFDIWGQGTMVTVSS
		binds		01P08A scFv (scFv, VL-(G4S)3-VH) scFv: QPVLTQPPSASASLGASVTLTCTLSSGYSNYKVDWYQQRPGKGPRFVMRVGTGGIVGSKGDGIPDRFSVLGSGLIRYLTIKNIQEEDESDYHCGADHGSGNNFVYVFGTGTKVTVLGGGGSGGGGSGGGGSQVQLQESGPGLVKPSETLSLTCIVSGGSISSYYWNWIRQPAGKGLEWIGRIYKSGNNIYNPSLQSRVTMSLDTSKNQFSLKLSSVTAADTAVYYCADGGNYFDWFDPWGQGTLVIVSS
